Test [1] concerns the target ribosome-nascent chain complex bearing the first ~90 amino acids of pPL(ss), labelled with BODIPY-FL on the nascent chain (bovine). The experiment in a line: other fluorescence titration; equilibrium FRET titrations of SRP^TMR into 1 nM RNC^BDP with unlabeled NAC premixed (0-400 nM for RNC(ss), 0-62.5 nM for RNC(ssmt)); global fit to the anti-cooperative co-binding model, Eq. (8); 25 °C, Assay buffer with 1 mg/mL BSA.

The target in test [2] is ribosome-nascent chain complex bearing the first ~90 amino acids of pPL(ssmt), labelled with BODIPY-FL on the nascent chain (bovine) (UniProt P01239). The description is as above.
In test [3] the target is ribosome-nascent chain complex bearing the first ~90 amino acids of pPL(ss), labelled with BODIPY-FL on the nascent chain (bovine). The experiment in a line: other fluorescence titration; equilibrium FRET titration: SRP^TMR titrated into 1 nM RNC^BDP; donor emission at 517 nm; fit to Eq. (4); 25 °C, Assay buffer with 1 mg/mL BSA; no NAC.
Test [4] deals with signal recognition particle (SRP), human, labelled with Cy3B on SRP54 (C47) (human) (UniProt P61011). The experiment in a line: stopped-flow FRET kinetics; as a1 but on RNC(ssmt2) with 300 nM NAC.
The target is the same in test [5]. The experiment in a line: stopped-flow FRET kinetics; as a1, on RNC(ss) of different nascent chain lengths, with 300 nM NAC; kon against nascent chain length fit to Eq. (18).
Test [6] has the same target. The test can be described thus: stopped-flow FRET kinetics.
The target is the same in test [7]. The experiment in a line: stopped-flow FRET kinetics; as a1, on RNC(ssmt) of different nascent chain lengths, no NAC; fit to a constant kon.
Test [8] shares this target. The test can be described thus: stopped-flow FRET kinetics; as a1, on RNC(ssmt) of different nascent chain lengths, with 300 nM NAC; fit to a constant kon.
The target is the same in test [9]. The experiment in a line: stopped-flow FRET kinetics; as a1 but on RNC(ssmt) with HSW(RRL) (high salt wash from 200 nM rabbit reticulocyte ribosome).
For test [10] the target is unchanged. The test can be described thus: stopped-flow FRET kinetics; as a1 but on RNC(ssmt2); no NAC, no HSW.
The target is the same in test [11]. The experiment in a line: stopped-flow FRET kinetics; as a1, on RNC(ss) of different nascent chain lengths, no NAC; kon against nascent chain length fit to Eq. (18).
Test [12] shares this target. The experiment in a line: stopped-flow FRET kinetics; as a1 but on RNC(ssmt2) with HSW(RRL).
Test [13] has the same target. The experiment in a line: stopped-flow FRET kinetics; as a1 but SRP^Cy3B pre-incubated with 200 nM RNC(ssmt); no NAC, no HSW.
Test [14] has the same target. The test can be described thus: stopped-flow FRET kinetics; as a1 but on RNC(ssmt) with 300 nM NAC (saturating).

As for “signal recognition particle (SRP), human, labelled with tetramethylrhodamine (TMR) at residue 12 of SRP54 (from UniProt P61011 1-504; P09132 1-144; P49458 1-86; P37108 1-136; Q9UHB9 1-627; O76094 1-671) (complex)”, the KD for NAC-bound RNC (α•Kd,SRP) in [1] stood at 2.4 nM; in test [2], 4.5 nM. In addition, the results for the Kd in [1] and in test [3] were 0.36 nM and 0.44 nM, respectively.
On to “soluble SRP receptor SRαβΔTM with the GTPase-deficient mutation SRα R458A, labelled with Atto647n (from UniProt P08240 1-638; Q9Y5M8 1-271) (complex)”, for which the fold lower kon than on RNC(ss) in test [4] was found to be 100 fold; in [10], 20 fold; in [12], 100 fold; in [14], 40 fold. Further, the values for the kon,max (fit of kon against nascent chain length) in [5] and in test [11] were 1.3e+06 M⁻¹ s⁻¹ and 940000 M⁻¹ s⁻¹, respectively. Besides, the figures for the kon,min (fit of kon against nascent chain length) in test [5] and in test [11] were 22000 M⁻¹ s⁻¹ and 400000 M⁻¹ s⁻¹, respectively. Besides, the kon (in general, the second-order rate constant of association) in test [6] was 1e+06 M⁻¹ s⁻¹; in test [7] it was 570000 M⁻¹ s⁻¹; in test [8], 13000 M⁻¹ s⁻¹; in test [13], 500000 M⁻¹ s⁻¹. In test [9], the fold reduction of kon by HSW(RRL) came to 20 fold.

The values are drawn from article PMC7673040.
